Data on one molecule can be found in PMC10830565 (2024).

For one experiment, the target named is T1, GST-BCL7B-CFP (Arabidopsis thaliana, UniProt Q9FLP2).
T1 chain: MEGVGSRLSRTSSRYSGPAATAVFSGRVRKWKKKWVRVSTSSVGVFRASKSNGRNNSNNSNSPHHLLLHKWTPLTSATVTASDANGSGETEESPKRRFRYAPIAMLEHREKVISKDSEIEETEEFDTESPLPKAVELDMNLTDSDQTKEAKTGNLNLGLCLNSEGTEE
The experiment in a line: GST pull-down.

The target in a further experiment is T2, GST-BCL7A-YFP (Arabidopsis thaliana, UniProt F4JL58).
T2 chain: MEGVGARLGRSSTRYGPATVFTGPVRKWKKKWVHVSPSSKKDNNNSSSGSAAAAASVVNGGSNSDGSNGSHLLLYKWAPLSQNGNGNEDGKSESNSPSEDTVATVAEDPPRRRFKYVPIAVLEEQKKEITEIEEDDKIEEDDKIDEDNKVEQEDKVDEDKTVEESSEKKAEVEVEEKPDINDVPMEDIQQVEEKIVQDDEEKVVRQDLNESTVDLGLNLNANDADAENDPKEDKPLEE
As to the kind of experiment: GST pull-down.

B1: MBP-BRM (422-952)-HIS (protein)
chain: MQQPRQLNTPTPNLVAPSDTGPLSNSSLQSGQGTQQAQQRSGFTKQQLHVLKAQILAFRRLKKGEGSLPPELLQAISPPPLELQTQRQISPAIGKVQDRSSDKTGEDQARSLECGKESQAAASSNGPIFSKEEDNVGDTEVALTTGHSQLFQNLGKEATSTDVATKEEQQTDVFPVKSDQGADSSTQKNPRSDSTADKGKAVASDGSQSKVPPQANSPQPPKDTASARKYYGPLFDFPFFTRKLDSYGSATANANNNLTLAYDIKDLICEEGAEFLSKKRTDSLKKINGLLAKNLERKRIRPDLVLRLQIEEKKLRLSDLQSRVREEVDRQQQEIMSMPDRPYRKFVRLCERQRLEMNRQVLANQKAVREKQLKTIFQWRKKLLEAHWAIRDARTARNRGVAKYHEKMLREFSKRKDDGRNKRMEALKNNDVERYREMLLEQQTNMPGDAAERYAVLSSFLTQTEDYLHKLGGKITATKNQQEVEEAANAAAVAARLQGLSEEEVRAAATCAREEVVIRNRFTEMNAPKEN
As to B1, the binding result with GST-BCL7B-CFP and with GST-BCL7A-YFP was “binds” in each case.
